{
  "source": "paper PMC6165294",
  "key": {"[1]": {"molecular_target": "GST-fusion NaV1.1 IQ domain (amino acids 1909-1936) (human)", "assay": "pull-down; phosphorylation series (Figure 6, Table 3): GST-IQ on GS-4B beads as control, treated with CaMKIIT286D or with CIP, then CaM 0.07-7 uM; [Ca2+] 2 mM; two-sites Hill fit; apparent constants"}, "[2]": {"molecular_target": "GST-fusion NaV1.1 IQ domain dephosphorylated by CIP (human)", "assay": "pull-down; phosphorylation series (Figure 6, Table 3): GST-IQ on GS-4B beads as control, treated with CaMKIIT286D or with CIP, then CaM 0.07-7 uM; [Ca2+] 2 mM; two-sites Hill fit; apparent constants"}, "[3]": {"molecular_target": "GST-fusion NaV1.1 IQ domain phosphorylated by CaMKII (human)", "assay": "pull-down; phosphorylation series (Figure 6, Table 3): GST-IQ on GS-4B beads as control, treated with CaMKIIT286D or with CIP, then CaM 0.07-7 uM; [Ca2+] 2 mM; two-sites Hill fit; apparent constants"}, "[4]": {"molecular_target": "GST-fusion NaV1.1 IQ domain (amino acids 1909-1936) (human)", "assay": "pull-down; phosphorylation series (Figure 6, Table 3): GST-IQ on GS-4B beads as control, treated with CaMKIIT286D or with CIP, then CaM 0.07-7 uM; [Ca2+] 100 nM; two-sites Hill fit; apparent constants"}, "[5]": {"molecular_target": "GST-fusion NaV1.1 IQ domain dephosphorylated by CIP (human)", "assay": "pull-down; phosphorylation series (Figure 6, Table 3): GST-IQ on GS-4B beads as control, treated with CaMKIIT286D or with CIP, then CaM 0.07-7 uM; [Ca2+] 100 nM; two-sites Hill fit; apparent constants"}, "[6]": {"molecular_target": "GST-fusion NaV1.1 IQ domain phosphorylated by CaMKII (human)", "assay": "pull-down; phosphorylation series (Figure 6, Table 3): GST-IQ on GS-4B beads as control, treated with CaMKIIT286D or with CIP, then CaM 0.07-7 uM; [Ca2+] 100 nM; two-sites Hill fit; apparent constants"}, "[7]": {"molecular_target": "GST-fusion NaV1.1 IQ domain (amino acids 1909-1936) (human)", "assay": "pull-down; phosphorylation series (Figure 6, Table 3): GST-IQ on GS-4B beads as control, treated with CaMKIIT286D or with CIP, then CaM 0.07-7 uM; [Ca2+] 500 nM; two-sites Hill fit; apparent constants"}, "[8]": {"molecular_target": "GST-fusion NaV1.1 IQ domain dephosphorylated by CIP (human)", "assay": "pull-down; phosphorylation series (Figure 6, Table 3): GST-IQ on GS-4B beads as control, treated with CaMKIIT286D or with CIP, then CaM 0.07-7 uM; [Ca2+] 500 nM; two-sites Hill fit; apparent constants"}, "[9]": {"molecular_target": "GST-fusion NaV1.1 IQ domain phosphorylated by CaMKII (human)", "assay": "pull-down; phosphorylation series (Figure 6, Table 3): GST-IQ on GS-4B beads as control, treated with CaMKIIT286D or with CIP, then CaM 0.07-7 uM; [Ca2+] 500 nM; two-sites Hill fit; apparent constants"}, "[10]": {"molecular_target": "GST-fusion NaV1.1 IQ domain (amino acids 1909-1936) (human)", "assay": "pull-down; phosphorylation series (Figure 6, Table 3): GST-IQ on GS-4B beads as control, treated with CaMKIIT286D or with CIP, then CaM 0.07-7 uM; [Ca2+] ≈ free; two-sites Hill fit; apparent constants"}, "[11]": {"molecular_target": "GST-fusion NaV1.1 IQ domain dephosphorylated by CIP (human)", "assay": "pull-down; phosphorylation series (Figure 6, Table 3): GST-IQ on GS-4B beads as control, treated with CaMKIIT286D or with CIP, then CaM 0.07-7 uM; [Ca2+] ≈ free; two-sites Hill fit; apparent constants"}, "[12]": {"molecular_target": "GST-fusion NaV1.1 IQ domain phosphorylated by CaMKII (human)", "assay": "pull-down; phosphorylation series (Figure 6, Table 3): GST-IQ on GS-4B beads as control, treated with CaMKIIT286D or with CIP, then CaM 0.07-7 uM; [Ca2+] ≈ free; two-sites Hill fit; apparent constants"}, "[13]": {"molecular_target": "GST-fusion NaV1.1 IQ domain (amino acids 1909-1936) (human)", "assay": "pull-down; GST-fusion IQ or mutant (2-4 ug) immobilised on GS-4B; CaM or mutant 0.07-7.0 uM; [Ca2+] 2 mM; 150 mM NaCl, 50 mM Tris pH 8.0, 4 h at 4 C; Coomassie densitometry, one- or two-sites Hill fit; apparent constants"}, "[14]": {"molecular_target": "GST-fusion NaV1.1 IQ domain (amino acids 1909-1936) (human)", "assay": "pull-down; GST-fusion IQ or mutant (2-4 ug) immobilised on GS-4B; CaM or mutant 0.07-7.0 uM; [Ca2+] 100 nM; 150 mM NaCl, 50 mM Tris pH 8.0, 4 h at 4 C; Coomassie densitometry, one- or two-sites Hill fit; apparent constants"}, "[15]": {"molecular_target": "GST-fusion NaV1.1 IQ domain (amino acids 1909-1936) (human)", "assay": "pull-down; GST-fusion IQ or mutant (2-4 ug) immobilised on GS-4B; CaM or mutant 0.07-7.0 uM; [Ca2+] 500 nM; 150 mM NaCl, 50 mM Tris pH 8.0, 4 h at 4 C; Coomassie densitometry, one- or two-sites Hill fit; apparent constants"}, "[16]": {"molecular_target": "GST-fusion NaV1.1 IQ domain (amino acids 1909-1936) (human)", "assay": "pull-down; GST-fusion IQ or mutant (2-4 ug) immobilised on GS-4B; CaM or mutant 0.07-7.0 uM; [Ca2+] ≈ free; 150 mM NaCl, 50 mM Tris pH 8.0, 4 h at 4 C; Coomassie densitometry, one- or two-sites Hill fit; apparent constants"}},
  "data": [
    {"substance": "calmodulin (CaM), human, wild type (from UniProt P0DP23 1-149) (natural protein)", "values": [
      {"measurement": "Kd2 (site 2 of the two-sites fit)", "setting": "[1]", "value": 1.1, "unit": "µM"},
      {"measurement": "Kd1 (site 1 of the two-sites fit)", "setting": "[2]", "value": 0.0383, "unit": "µM"},
      {"measurement": "Kd2 (site 2 of the two-sites fit)", "setting": "[2]", "value": 2.01, "unit": "µM"},
      {"measurement": "Kd1 (site 1 of the two-sites fit)", "setting": "[3]", "value": 0.0473, "unit": "µM"},
      {"measurement": "Kd2 (site 2 of the two-sites fit)", "setting": "[3]", "value": 1.95, "unit": "µM"},
      {"measurement": "Kd2 (site 2 of the two-sites fit)", "setting": "[4]", "value": 3.09, "unit": "µM"},
      {"measurement": "Kd1 (site 1 of the two-sites fit)", "setting": "[5]", "value": 0.0365, "unit": "µM"},
      {"measurement": "Kd2 (site 2 of the two-sites fit)", "setting": "[5]", "value": 1.42, "unit": "µM"},
      {"measurement": "Kd1 (site 1 of the two-sites fit)", "setting": "[6]", "value": 0.0251, "unit": "µM"},
      {"measurement": "Kd2 (site 2 of the two-sites fit)", "setting": "[6]", "value": 3.03, "unit": "µM"},
      {"measurement": "Kd2 (site 2 of the two-sites fit)", "setting": "[7]", "value": 5.04, "unit": "µM"},
      {"measurement": "Kd2 (site 2 of the two-sites fit)", "setting": "[8]", "value": 3.95, "unit": "µM"},
      {"measurement": "Kd1 (site 1 of the two-sites fit)", "setting": "[9]", "value": 0.013, "unit": "µM"},
      {"measurement": "Kd2 (site 2 of the two-sites fit)", "setting": "[9]", "value": 8.17, "unit": "µM"},
      {"measurement": "Kd1 (site 1 of the two-sites fit)", "setting": "[10]", "value": 0.0376, "unit": "µM"},
      {"measurement": "Kd2 (site 2 of the two-sites fit)", "setting": "[10]", "value": 2.49, "unit": "µM"},
      {"measurement": "Kd1 (site 1 of the two-sites fit)", "setting": "[11]", "value": 0.0371, "unit": "µM"},
      {"measurement": "Kd2 (site 2 of the two-sites fit)", "setting": "[11]", "value": 2.03, "unit": "µM"},
      {"measurement": "Kd1 (site 1 of the two-sites fit)", "setting": "[12]", "value": 0.0361, "unit": "µM"},
      {"measurement": "Kd2 (site 2 of the two-sites fit)", "setting": "[12]", "value": 1.44, "unit": "µM"},
      {"measurement": "Kd1 (site 1 of the two-sites fit)", "setting": "[13]", "value": 0.0682, "unit": "µM"},
      {"measurement": "Kd2 (site 2 of the two-sites fit)", "setting": "[13]", "value": 0.559, "unit": "µM"},
      {"measurement": "Kd1 (site 1 of the two-sites fit)", "setting": "[14]", "value": 0.063, "unit": "µM"},
      {"measurement": "Kd2 (site 2 of the two-sites fit)", "setting": "[14]", "value": 2.91, "unit": "µM"},
      {"measurement": "Kd1 (site 1 of the two-sites fit)", "setting": "[15]", "value": 0.0433, "unit": "µM"},
      {"measurement": "Kd2 (site 2 of the two-sites fit)", "setting": "[16]", "value": 4.58, "unit": "µM"}
    ]}
  ]
}
